Reference: patent US7592168B2, “Cephalosporin C acylase mutant and method for preparing 7-ACA using same” (Sandoz AG, priority 2003, dated 2009)

Columns and labels:
[1] = Specific activity of CPC acylase to CPC (PDAB colorimetric assay); assay type: biochemical; conditions: purified enzyme
Method: Each E. coli transformant was inoculated into 3 ml of a LB medium (1% Bacto-Tryptone, 0.5% Yeast Extract, 0.5% NaCl) containing 25 μg/ml of chloramphenicol and cultured at 30° C., 200 rpm for 16 hr with vigorous shaking. 50 μl of the culture solution was transformed to 50 ml of a new LB medium containing […] of chloramphenicol and further cultured at 25° C., 200 rpm for 48 hr with vigorous shaking. The culture solution was subjected to centrifugation at 4° C., 8,000 rpm for 10 min to separate a precipitate and the precipitate washed twice with 0.1 M Tris-HCl buffer solution (pH 8.0). This precipitate was suspended in 5 ml of the same buffer solution and subjected to ultra-sonication at 4° C. for 10 min. […]
The enzyme activity of CPC acylase mutant to CPC was measured according to the method described by Park et al. with minor modifications as follows (Park, et al., Kor. J. Appl. Microbiol. Biotechnol. 23: 559-564, 1995). A substrate solution was prepared by dissolving CPC (purity 74.2%; CJ Corp., Korea) in 0.1 M Tris-HCl buffer solution (pH 8.0) at a concentration of 20 mg/ml and adjusting pH to 8 with 1 N NaOH. […] After the reaction, the mixture (200 μl) of 50 mM NaOH and 20% glacial acetic acid (1:2) was added thereto to stop the reaction. 200 μl of the supernatant recovered from the reaction mixture by centrifugation was mixed with 40 μl of 0.5% (w/v) PDAB (p-dimethylaminobenzaldehyde; Sigma, USA) dissolved in a methanol and the reaction mixture was incubated at 37° C. for 10 min. After the reaction, the absorbance of reaction mixture was measured at 415 nm and quantified by comparing with a calibration curve of standard material. At this time, 1 unit has been defined as the amount of enzyme capable to produce 1 μmole of 7-ACA from CPC per minute. Meanwhile, the specific activity of CPC acylase mutant for CPC was determined by measuring the amount of protein remaining in the enzyme solution according to the method described by Bradford (Bradford, M., Anal. Biochem. 72: 248-254, 1976) and representing it as an active unit corresponding to 1 mg of protein. The reactivity of CPC acylase mutant to CPC was determined by the following steps of adding the same amount of protein to a reaction mixture, performing an enzyme reaction for a fixed time, measuring the amount of 7-ACA produced in the reaction mixture, and representing it as a relative value. The end-product inhibition by 7-ACA was determined by adding a protein corresponding to the same active unit to a reaction mixture, performing an enzyme reaction for a fixed time; measuring the amount of 7-ACA produced in the reaction mixture, and representing it as a relative value.

[2] = Specific activity of CPC acylase to GL-7-ACA; assay type: biochemical; conditions: purified enzyme
Method: J. Appl. Microbiol. Biotechnol. 23: 559-564, 1995). […] After the reaction, the mixture (200 μl) of 50 mM NaOH and 20% glacial acetic acid (1:2) was added thereto to stop the reaction. 200 μl of the supernatant recovered from the reaction mixture by centrifugation was mixed with 40 μl of 0.5% (w/v) PDAB (p-dimethylaminobenzaldehyde; Sigma, USA) dissolved in a methanol and the reaction mixture was incubated at 37° C. for 10 min. After the reaction, the absorbance of reaction mixture was measured at 415 nm and quantified by comparing with a calibration curve of standard material. […] Biochem. 72: 248-254, 1976) and representing it as an active unit corresponding to 1 mg of protein. The reactivity of CPC acylase mutant to CPC was determined by the following steps of adding the same amount of protein to a reaction mixture, performing an enzyme reaction for a fixed time, measuring the amount of 7-ACA produced in the reaction mixture, and representing it as a relative value. The end-product inhibition by 7-ACA was determined by adding a protein corresponding to the same active unit to a reaction mixture, performing an enzyme reaction for a fixed time; measuring the amount of 7-ACA produced in the reaction mixture, and representing it as a relative value.
Therefore, it has been known that the Pseudomonas sp.

[3] = Matsuda et al. 1987; cited from earlier work
[4] = Reactivity to CPC (relative 7-ACA produced by the same amount of protein); assay type: biochemical; conditions: crude enzyme solution
Method: The enzyme activity of CPC acylase mutant to CPC was measured according to the method described by Park et al. with minor modifications as follows (Park, et al., Kor. J. Appl. Microbiol. Biotechnol. 23: 559-564, 1995). A substrate solution was prepared by dissolving CPC (purity 74.2%; CJ Corp., Korea) in 0.1 M Tris-HCl buffer solution (pH 8.0) at a concentration of 20 mg/ml and adjusting pH to 8 with 1 N NaOH. 20 μl of the CPC solution was mixed with 20 μl of the crude enzyme solution prepared above and the reaction mixture was incubated at 37° C. for 5 min. After the reaction, the mixture (200 μl) of 50 mM NaOH and 20% glacial acetic acid (1:2) was added thereto to stop the reaction. 200 μl of the supernatant recovered from the reaction mixture by centrifugation was mixed with 40 μl of 0.5% (w/v) PDAB (p-dimethylaminobenzaldehyde; Sigma, USA) dissolved in a methanol and the reaction mixture was incubated at 37° C. for 10 min. After the reaction, the absorbance of reaction mixture was measured at 415 nm and quantified by comparing with a calibration curve of standard material. […] Meanwhile, the specific activity of CPC acylase mutant for CPC was determined by measuring the amount of protein remaining in the enzyme solution according to the method described by Bradford (Bradford, M., Anal. Biochem. 72: 248-254, 1976) and representing it as an active unit corresponding to 1 mg of protein. […]

Row | Molecule | specific activity to CPC as % of that to GL-7-ACA [1] | specific activity to CPC ([1]; pH 8.0) | Relative activity to CPC (fold) ([1]; relative to wild-type) | specific activity to GL-7-ACA [2] | acylase activity to CPC as compared with GL-7-ACA [3] | specific activity to CPC, fold higher than that of the wild-type CPC acylase ([1]; pH 8.5) | specific activity to CPC ([1]; pH of the reaction mixture 8.5) | reactivity to CPC (in words) [4]
1 | Wild-type: Pseudomonas sp. SE83 derived wild-type CPC acylase (AcyII), α-subunit SEQ ID NO: 4 and β-subunit SEQ ID NO: 5, from pBCPC (protein, Pseudomonas sp. SE83) alpha: TMAAKTDREALQAALPPLSGSLSIPGLSAPVRVQRDGWGIPHIKASGEADAYRALGFVHAQDRLFQMELTRRKALGRAAEWLGAEAAEADILVRRLGMEKVCRRDFEALGAEAKDMLRAYVAGVNAFLASGAPLPIEYGLLGAEPEPWEPWHSIAVMRRLGLLMGSVWFKLWRMLALPVVGAANALKLRYDDGGQDLLCIPPGVEAERLEADLAALRPAVDALLKAMGG beta: SNNWAVAPGRTATGRPILAGDPHRVFEIPGMYAQHHLACDRFDMIGLTVPGVPGFPHFAHNGKVAYCVTHAFMDIHDLYLEQFAEDGRTARFGNEFEPVAWRRDRIAVRGGADREFDIVETRHGPVIAGDPLEGAALTLRSVQFAETDLSFDCLTRMPGASTVAQLYDATRGWGLIDHNLVAGDVAGSIGHLVRARVPSRPRENGWLPVPGWSGEHEWRGWIPHEAMPRVIDPPGGLIVTANNRVVADDHPDYLCTDCHPPYRAERIMERLVASPAFAVDDAAAIHADTLSPHVGLLRARLEALGIQGSLPAEELRQTLIAWDGRMDAGSQAASAYNAFRRALTRLVTARSGLEQAIAHPFAAVPPGVSPQGQVWWAVPTLLRNDDAGMLKGWSWDEALSEALSVATQNLTGRGWGEEHRPRFTHPLSAQFPAWAALLNPVSRPIGGDGDTVLANGLVPSAGPEATYGALSRYVFDVGNWDNSRWVVFHGASGHPASPHYADQNAPWSDCAMVPMLYSWDRIAAEAVTSQELVPA | about 1.4% | about 0.33 unit/mg protein | 1.0 fold | about 23.1 unit/mg protein | about 5% | – | – | –
2 | S12: sixfold CPC acylase mutant, α-subunit SEQ ID NO: 7 and β-subunit SEQ ID NO: 8 (protein, alpha-subunit of mutatnt CPC acylase S12 protein; beta-subunit of mutatnt CPC acylase S12 protein) alpha: TMAAKTDREALQAALPPLSGSLSIPGLSAPVRVQRDGWGIPHIKASGEADAYRALGFVHAQDRLFQMELTRRKALGRAAEWLGAEAAEADILVRRLGMEKVCRRDFEALGAEAKDMLRAYAAGVNAFLASGAPLPIEYSLLGAEPEPWEPWHSIAVMRRLGLLMGSVWFKLWRMLALPVVGAANALKLRYDDGGQDLLCIPPGVEAERLEADLAALRPAVDALLKAMGG beta: SNNWAVAPGRTATGRPILAGDPHRVFEIPGMYAQHHLACDRFDMIGLTVPGVPGFPHNAHNGKVAYCVTHAFMDTHDLYLEQFAEDGRTARFGNEFEPVAWRRDRIAVRGGADREFDIVETRHGPVIAGDPLEGAALTLRSVQFAETDLSFDCLTRMPGASTVAQLYDATRGWGLVDHNLVAGDVAGSIGHLVRARVPSRPRENGWLPVPGWSGEHEWRGWIPHEAMPRVIDPPGGLIVTANNRVVADDHPDYLCTDCHPPYRAERIMERLVASPAFAVDDAAAIHADTLSPHVGLLRARLEALGIQGSLPAEELRQTLIAWDGRMDAGSQAASAYNAFRRALTRLVTARSGLEQAIAHPFAAVPPGVSPQGQVWWAVPTLLRNDDAGMLKGWSWDEALSEALSVATQNLTGRGWGEEHRPRFTHPLSAQFPAWAALLNPVSRPIGGDGDTVLANGLVPSAGPEATYGALCRYVFDVGNWDNSRWVVFHGASGHPASPHYADQNAPWSDCAMVPMLYSWDRIAAEAVTSQELVPA | – | – | – | – | – | 8.5 fold | 5.8 unit/mg protein | higher than that of #76 mutant
